Values of other authors, collected in patent publication US12383526B2, “Optimized sigma-1 agonist method of responder selection and treatment” (ANAVEX LIFE SCIENCES CORP., priority 2018, dated 2025).

Details: after 72 weeks; CTAD 2018; cited from earlier work

B1: BAN2401: comparison from other studies: data presented at CTAD 2018 for BAN2401 after 72 weeks (antibody, chains of the INN, looked up, V domains shown)
VH: EVQLVESGGGLVQPGGSLRLSCSASGFTFSSFGMHWVRQAPGKGLEWVAYISSGSSTIYYGDTVKGRFTISRDNAKNSLFLQMSSLRAEDTAVYYCAREGGYYYGRSYYTMDYWGQGTTVTVSS
VL: DVVMTQSPLSLPVTPGAPASISCRSSQSIVHSNGNTYLEWYLQKPGQSPKLLIYKVSNRFSGVPDRFSGSGSGTDFTLRISRVEAEDVGIYYCFQGSHVPPTFGPGTKLEIK
adjusted mean change from baseline in ADAS-Cog: 47%
adjusted mean change in ADCOMS: 30%
